{"source": "paper PMC9201872", "key": {"[1]": {"molecular_target": "TIM-SNAP-HA (Timeless, S-TIM) (Drosophila melanogaster)", "sequence (A4V040 whole entry)": "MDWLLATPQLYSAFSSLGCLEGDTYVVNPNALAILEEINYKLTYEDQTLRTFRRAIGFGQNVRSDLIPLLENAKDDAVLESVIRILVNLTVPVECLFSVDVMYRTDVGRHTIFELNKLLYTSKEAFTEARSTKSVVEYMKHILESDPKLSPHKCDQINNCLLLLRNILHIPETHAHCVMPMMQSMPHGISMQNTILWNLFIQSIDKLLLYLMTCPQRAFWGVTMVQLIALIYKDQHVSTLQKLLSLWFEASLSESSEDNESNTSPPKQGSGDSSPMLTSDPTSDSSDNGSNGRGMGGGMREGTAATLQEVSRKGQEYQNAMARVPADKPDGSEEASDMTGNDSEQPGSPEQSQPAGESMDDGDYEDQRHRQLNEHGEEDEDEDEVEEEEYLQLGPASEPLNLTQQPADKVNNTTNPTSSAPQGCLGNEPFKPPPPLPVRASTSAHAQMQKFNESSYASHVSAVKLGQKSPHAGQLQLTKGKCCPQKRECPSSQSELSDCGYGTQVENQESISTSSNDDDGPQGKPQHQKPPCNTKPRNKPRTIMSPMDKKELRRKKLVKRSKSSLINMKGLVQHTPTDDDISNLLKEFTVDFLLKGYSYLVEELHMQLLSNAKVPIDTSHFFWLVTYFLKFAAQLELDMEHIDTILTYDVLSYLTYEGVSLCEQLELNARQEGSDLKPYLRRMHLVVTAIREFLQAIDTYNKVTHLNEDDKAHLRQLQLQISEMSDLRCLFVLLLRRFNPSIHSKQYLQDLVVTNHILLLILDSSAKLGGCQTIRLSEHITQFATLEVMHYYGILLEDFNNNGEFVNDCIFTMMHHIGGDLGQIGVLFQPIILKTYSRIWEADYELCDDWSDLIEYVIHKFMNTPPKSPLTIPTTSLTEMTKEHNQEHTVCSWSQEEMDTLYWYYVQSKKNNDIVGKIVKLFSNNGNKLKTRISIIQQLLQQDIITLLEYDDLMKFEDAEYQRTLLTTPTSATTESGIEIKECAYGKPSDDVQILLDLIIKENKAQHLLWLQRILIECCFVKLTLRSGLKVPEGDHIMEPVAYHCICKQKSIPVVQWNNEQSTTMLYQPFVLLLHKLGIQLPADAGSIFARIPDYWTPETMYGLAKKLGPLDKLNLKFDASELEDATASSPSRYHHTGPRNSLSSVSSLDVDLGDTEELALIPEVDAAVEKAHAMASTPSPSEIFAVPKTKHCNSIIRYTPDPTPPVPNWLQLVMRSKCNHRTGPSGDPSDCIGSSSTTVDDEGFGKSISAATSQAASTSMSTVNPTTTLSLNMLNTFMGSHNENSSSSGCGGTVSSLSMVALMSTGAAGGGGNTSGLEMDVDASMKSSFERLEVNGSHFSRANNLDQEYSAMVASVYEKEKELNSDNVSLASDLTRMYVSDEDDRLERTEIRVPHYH", "assay": "pull-down"}, "[2]": {"molecular_target": "TIM-SNAP-HA (Timeless, S-TIM) (Drosophila melanogaster)", "assay": "pull-down", "remark": "listed apart in the source"}, "[3]": {"molecular_target": "TIM-SNAP-HA (Timeless, S-TIM) (Drosophila melanogaster)", "assay": "native gel or EMSA"}, "[4]": {"molecular_target": "TIM-SNAP-HA (Timeless, S-TIM) (Drosophila melanogaster)", "assay": "pull-down", "remark": "listed apart in the source"}}, "note": "Read-outs that look alike come from different tables or passages of the source."}
{"substance": "CLIP-CRYΔ (residue 1-520) (from UniProt O77059 1-520) (domain or fragment)", "values": [{"measurement": "Kd", "setting": "[1]", "result": 1500, "unit": "nM"}, {"measurement": "Kd", "setting": "[2]", "result": 1700, "unit": "nM"}, {"measurement": "stoichiometry N", "setting": "[3]", "result": 1.08}]}
{"substance": "CLIP-CRY W394F (from UniProt O77059 1-539) (natural protein)", "values": [{"measurement": "fold difference in KD against CRYΔ", "setting": "[2]", "result": 35, "unit": "fold"}]}
{"substance": "CLIP-CRY H377L (from UniProt O77059 1-539) (natural protein)", "values": [{"measurement": "fold greater affinity than CRYΔ", "setting": "[4]", "result": 10, "unit": "fold"}, {"measurement": "fold greater affinity than CRYΔ", "setting": "[2]", "result": 10, "unit": "fold"}]}
{"substance": "CLIP-CRY H377A (from UniProt O77059 1-539) (natural protein)", "values": [{"measurement": "Kd", "setting": "[2]", "result": 18100, "unit": "nM"}]}
